# In the supplement of paper PMC10567573:
# B1: GAGE1 (parent)
# chain: RPRRYVQPPEMIGPMRPEQFSDEV
# Variants of: B1
# Test: protein stability index of a GFP-peptide fusion (GPS, HEK-293T) (PSI 1-6); higher = more stable
# Settings: c terminus: a fixed tail appended
# 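Further: lentivirally expressed fusions sorted by FACS into six bins by GFP to DsRed ratio, PSI derived from sequencing read proportions per bin multiplied by bin number.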
row,Variant,protein stability index
1,RPRRYVQPPEMIGPMRPEQFSQEV [D22Q],3.11
2,RPRRYVQPPEMIGPMRPEQFSHEV [D22H],3.29
3,RPRRYVQPPEMIGPMRPEQFSEEV [D22E],3.83
4,RPRRYVQPPEMIGPMRPEQFSMEV [D22M],3.06
5,RPRRYVQPPEMIGPMRPEQFSTEV [D22T],3.76
6,RPRRYVQPPEMIGPMRPEQFSAEV [D22A],3.87
7,RPRRYVQPPEMIGPMRPEQFSCEV [D22C],3.14
8,RPRRYVQPPEMIGPMRPEQFSLEV [D22L],2.6
9,RPRRYVQPPEMIGPMRPEQFSREV [D22R],3.5
10,RPRRYVQPPEMIGPMRPEQFSIEV [D22I],1.97
11,RPRRYVQPPEMIGPMRPEQFSVEV [D22V],2.9
12,RPRRYVQPPEMIGPMRPEQFSNEV [D22N],3.23
13,RPRRYVQPPEMIGPMRPEQFSWEV [D22W],2.53
14,RPRRYVQPPEMIGPMRPEQFSKEV [D22K],3.88
15,RPRRYVQPPEMIGPMRPEQFSFEV [D22F],2.16
16,RPRRYVQPPEMIGPMRPEQFSYEV [D22Y],2.77
17,RPRRYVQPPEMIGPMRPEQFSGEV [D22G],3.62
18,RPRRYVQPPEMIGPMRPEQFSPEV [D22P],3.95
19,RPRRYVQPPEMIGPMRPEQMSDEV [F20M],4.08
20,RPRRYVQPPEMIGPMRPEQVSDEV [F20V],4.71
21,RPRRYVQPPEMIGPMRPEQWSDEV [F20W],3.94
22,RPRRYVQPPEMIGPMRPEQYSDEV [F20Y],3.82
23,RPRRYVQPPEMIGPMRPEQNSDEV [F20N],4.8
24,RPRRYVQPPEMIGPMRPEQGSDEV [F20G],4.85

row,Variant,protein stability index
1,RPRRYVQPPEMIGPMRPEQRSDEV [F20R],4.64
2,RPRRYVQPPEMIGPMRPEQHSDEV [F20H],4.04
3,RPRRYVQPPEMIGPMRPEQESDEV [F20E],4.97
4,RPRRYVQPPEMIGPMRPEQASDEV [F20A],4.98
5,RPRRYVQPPEMIGPMRPEQKSDEV [F20K],4.92
6,RPRRYVQPPEMIGPMRPEQISDEV [F20I],4.31
7,RPRRYVQPPEMIGPMRPEQSSDEV [F20S],4.42
8,RPRRYVQPPEMIGPMRPEQCSDEV [F20C],4.64
9,RPRRYVQPPEMIGPMRPEQDSDEV [F20D],4.91
10,RPRRYVQPPEMIGPMRPEQTSDEV [F20T],4.62
11,RPRRYVQPPEMIGPMRPEQPSDEV [F20P],4.72
12,RPRRYVQPPEMIGPMRPEQQSDEV [F20Q],4.84
13,RPRRYVQPPEMIGPMRPEQLSDEV [F20L],4.5
14,RPRRYVQPPEMIGPWRPEQFSDEV [M15W],3.49
15,RPRRYVQPPEMIGPRRPEQFSDEV [M15R],4.17
16,RPRRYVQPPEMIGPFRPEQFSDEV [M15F],3.89
17,RPRRYVQPPEMIGPPRPEQFSDEV [M15P],4.31
18,RPRRYVQPPEMIGPLRPEQFSDEV [M15L],3.95
19,RPRRYVQPPEMIGPERPEQFSDEV [M15E],4.78
20,RPRRYVQPPEMIGPCRPEQFSDEV [M15C],4.31
21,RPRRYVQPPEMIGPGRPEQFSDEV [M15G],4.7
22,RPRRYVQPPEMIGPQRPEQFSDEV [M15Q],4.58
23,RPRRYVQPPEMIGPTRPEQFSDEV [M15T],4.72
24,RPRRYVQPPEMIGPIRPEQFSDEV [M15I],4.12

row,Variant,protein stability index
1,RPRRYVQPPEMIGPKRPEQFSDEV [M15K],4.48
2,RPRRYVQPPEMIGPVRPEQFSDEV [M15V],4.49
3,RPRRYVQPPEMIGPNRPEQFSDEV [M15N],3.97
4,RPRRYVQPPEMIGPDRPEQFSDEV [M15D],4.75
5,RPRRYVQPPEMIGPHRPEQFSDEV [M15H],3.69
6,RPRRYVQPPEMIGPARPEQFSDEV [M15A],4.21
7,RPRRYVQPPEMIGPYRPEQFSDEV [M15Y],4
8,RPRRYVQPPEMIGPSRPEQFSDEV [M15S],4.84
9,RPRRYVQPPEMIGPMRPEMFSDEV [Q19M],3.58
10,RPRRYVQPPEMIGPMRPEGFSDEV [Q19G],4.28
11,RPRRYVQPPEMIGPMRPENFSDEV [Q19N],3.79
12,RPRRYVQPPEMIGPMRPEPFSDEV [Q19P],4.11
13,RPRRYVQPPEMIGPMRPEYFSDEV [Q19Y],3.92
14,RPRRYVQPPEMIGPMRPEKFSDEV [Q19K],3.98
15,RPRRYVQPPEMIGPMRPEFFSDEV [Q19F],3.62
16,RPRRYVQPPEMIGPMRPEIFSDEV [Q19I],3.78
17,RPRRYVQPPEMIGPMRPEVFSDEV [Q19V],3.78
18,RPRRYVQPPEMIGPMRPESFSDEV [Q19S],3.82
19,RPRRYVQPPEMIGPMRPERFSDEV [Q19R],3.71
20,RPRRYVQPPEMIGPMRPEHFSDEV [Q19H],3.62
21,RPRRYVQPPEMIGPMRPELFSDEV [Q19L],3.63
22,RPRRYVQPPEMIGPMRPEAFSDEV [Q19A],3.71
23,RPRRYVQPPEMIGPMRPEEFSDEV [Q19E],3.51
24,RPRRYVQPPEMIGPMRPEWFSDEV [Q19W],3.12

row,Variant,protein stability index
1,RPRRYVQPPEMIGPMRPECFSDEV [Q19C],4.16
2,RPRRYVQPPEMIGPMRPEDFSDEV [Q19D],3.69
3,RPRRYVQPPEMIGPMRPETFSDEV [Q19T],4.09
4,RPRRYVQPPEMIGCMRPEQFSDEV [P14C],3.68
5,RPRRYVQPPEMIGEMRPEQFSDEV [P14E],4.41
6,RPRRYVQPPEMIGKMRPEQFSDEV [P14K],3.71
7,RPRRYVQPPEMIGLMRPEQFSDEV [P14L],3.48
8,RPRRYVQPPEMIGGMRPEQFSDEV [P14G],3.97
9,RPRRYVQPPEMIGTMRPEQFSDEV [P14T],4.44
10,RPRRYVQPPEMIGDMRPEQFSDEV [P14D],4.54
11,RPRRYVQPPEMIGNMRPEQFSDEV [P14N],4.2
12,RPRRYVQPPEMIGFMRPEQFSDEV [P14F],3.54
13,RPRRYVQPPEMIGAMRPEQFSDEV [P14A],4.38
14,RPRRYVQPPEMIGMMRPEQFSDEV [P14M],3.6
15,RPRRYVQPPEMIGQMRPEQFSDEV [P14Q],4.23
16,RPRRYVQPPEMIGVMRPEQFSDEV [P14V],4.2
17,RPRRYVQPPEMIGIMRPEQFSDEV [P14I],4.13
18,RPRRYVQPPEMIGSMRPEQFSDEV [P14S],4.13
19,RPRRYVQPPEMIGHMRPEQFSDEV [P14H],4.31
20,RPRRYVQPPEMIGWMRPEQFSDEV [P14W],3.58
21,RPRRYVQPPEMIGYMRPEQFSDEV [P14Y],4.26
22,RPRRYVQPPEMIGRMRPEQFSDEV [P14R],4.31
